The target in one assay is T1, murine IL-17A (murine, UniProt Q62386 26-158, limits assumed).
T1 construct: Antigen of the murine IL-17A crossreactivity ELISA; construct not described; also called mouse IL-17A
T1 sequence (looked up): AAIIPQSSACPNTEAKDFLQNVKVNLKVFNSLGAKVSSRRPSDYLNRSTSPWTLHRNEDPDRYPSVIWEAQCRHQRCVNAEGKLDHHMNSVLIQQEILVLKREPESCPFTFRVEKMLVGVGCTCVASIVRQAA
Kind of assay: murine IL-17A crossreactivity ELISA. Background: In an ELISA, binding on a coated surface is turned into a signal by an enzyme label.

Assay [1] concerns the target T2, human IL-17A (human, UniProt Q16552 24-155). Kind of assay: cell-based or functional assay.
In the next assay the target is T3, cyno primate IL-17A (cyno primate, UniProt A0A2K5TTB0 24-155).
T3 construct: Antigen of the primate crossreactivity ELISA; construct not described; also called Cy IL-17
Kind of assay: ELISA, binding to cyno IL-17A.

Assay [2] deals with T2, human IL-17A. Briefly: IL-17A/IL-17R blocking ELISA.
The target of assay [3] is T2, human IL-17A. Kind of assay: ELISA, binding to human IL-17A.
Assay [4] addresses T2, human IL-17A. Briefly: SPR, Biacore 8k; antibody amine-coupled to the chip, IL-17A as analyte. How it is done: (§1) The recombinant IgGs secreted to the medium and were purified using protein A affinity chromatography. […] Antibodies were immobilized on the sensor chip through amine coupling method. […] The data of dissociation (kd) and association (ka) rate constants were obtained using Biacore 8k evaluation software. The equilibrium dissociation constants (KD) were calculated from the ratio of kd over ka.
(Surface plasmon resonance follows binding to a sensor surface in real time, without labels.)

The target of assay [5] is T2, human IL-17A. Kind of assay: cell-based or functional assay. This is another data set of the same source.
The target in assay [6] is T2, human IL-17A. Briefly: SPR, Biacore 8k; antibody amine-coupled to the chip, IL-17A as analyte; first of two Chimeric Ab rows (ka 1.94E+06). The protocol:
as §1

Assay [7] deals with T2, human IL-17A. Briefly: SPR, Biacore 8k; antibody amine-coupled to the chip, IL-17A as analyte (second, unlabelled row); second, unlabelled row under Chimeric Ab. The protocol:
as §1

Assay [8] addresses T2, human IL-17A. Briefly: SPR, Biacore 8k; antibody amine-coupled to the chip, IL-17A as analyte (second, unlabelled row). The protocol: as §1
The target in assay [9] is T2, human IL-17A. Briefly: SPR, Biacore T200; antibody amine-coupled to the chip, IL-17A as analyte. The protocol: The data of dissociation (kd) and association (kₐ) rate constants were obtained using Biacore T200 evaluation software. The equilibrium dissociation constants (KD) were calculated from the ratio of kd over kₐ.

Where a chain is given by its changes, count along the chain named.

T2 sequence (Q16552 24-155 limits assumed): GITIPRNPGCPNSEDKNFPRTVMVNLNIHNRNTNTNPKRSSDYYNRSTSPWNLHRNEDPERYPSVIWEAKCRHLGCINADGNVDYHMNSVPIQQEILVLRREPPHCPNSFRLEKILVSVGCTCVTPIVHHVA
T3 sequence (A0A2K5TTB0 entry or part of it): as the sequence (Q16552 24-155 limits assumed) above, with T3A, P8S, N34S, I77V, N78K, P104R counted along it

B1: 22E2G4 (antibody, mouse IgG1, V domains shown)
VH: QVQLQQPGAELVMPGTSVRLSCKASGYTFTSYWMHWVKQRPGQGLEWIGEIDPSDTYTNYNPKFKGKATLTVDKSSSTAYMQFTSLTSEDSAVYYCARSGIYYDYYEDYWGQGTTLTVSS
VL: DVVMTQTPLSLPVSLGDQASISCRSSQILLHSNGNTYLHWYLQKPGQSPKLLIYKVSNRFSGVPDRFSGSGSGTDFTLKISRVEAEDLGVYFCSQSVHVPTFGGGTKLEIK
notes: amino acids 1-19 are stated as the leader; also called A3
By EC50 is commonly meant the concentration at which the effect is half-maximal. A low value points to greater potency. A word on the IC50: it is the concentration at which inhibition is half-maximal. A low value points to greater potency. In the case of B1, in the assay with murine IL-17A, the binding result is on record as “no binding”. Besides, the “IC50 (nM), IL6 production by TNFα-primed NIH3T3 cells stimulated with human IL-17A” value (“IC50 (nM), IL6 production” below) with human IL-17A [1] is 0.534 nM. Besides, the results for the EC50 in the assay with cyno primate IL-17A and in the assay with human IL-17A [3] were 0.013 nM and 0.15 nM, respectively. In the assay with human IL-17A [2], this molecule showed an IC50 of 3.04 nM.

B2: 26G11B11 (antibody, mouse IgG1, V domains shown)
VH: B1 VH with T16A, R19K, S25A, T56S, P62Q, F83L, T84S
VL: B1 VL with I28S, L30V, V97I
notes: amino acids 1-19 are stated as the leader; also called A6
Take B2: the binding result in the assay with murine IL-17A is “no binding”. In addition, the “IC50 (nM), IL6 production” value in the assay with human IL-17A [1] turned out to be 0.544 nM. In addition, the half-maximal effective concentration (EC50) in the assay with cyno primate IL-17A is 0.012 nM; with human IL-17A [3], 0.12 nM. Also, the IC50 with human IL-17A [2] came out at 2.19 nM.

B3: 24F11E4 (antibody, mouse IgG1, V domains shown)
VH: B1 VH with T16A, S31N, M34I, Y57F, N61S, F83L, S85G, Y95F
VL: B1 VL with A19V, E86D
notes: amino acids 1-19 are stated as the leader; also called A5
With B3, the binding result in the assay with murine IL-17A is given as “no binding”. Besides, the “IC50 (nM), IL6 production” value in the assay with human IL-17A [1] was 0.138 nM. For the same molecule, the EC50 came out at 0.01 nM in the assay with cyno primate IL-17A and 0.16 nM with human IL-17A [3]. In addition, the concentration for half-maximal inhibition (IC50) with human IL-17A [2] is 2.15 nM.

B4: REMD 155.1 (antibody, human IgG4 S228P, kappa, V domains shown)
VH: QVQLVQSGAEVKKPGASVKVSCKASGFTFTDYYMNWVRQAPGQGLEWMGDINPKNGGTIFNQNFRGRVTMTRDTSISTAYMELSRLRSDDTAVYYCARSILTGPFYFDYWGQGTLVTVSS
VL: DIVMTQSPDSLAVSLGERATINCKASQSVSFAGTGLMHWYQQKPGQQPKLLIYRASNLEAGVPDRFSGSGSGTDFTLTISSLQAEDVAVYYCQQTMEYPTFGGGTKLEIKR
notes: Humanized antibody derived from 23A4D8; also called IgG 2 (H1/L2); H1 + L2
The term Kd denotes the concentration at which binding is half-saturated. Read a high Kd as weaker binding. By koff is commonly meant the first-order rate constant of dissociation. A higher koff goes with a short-lived complex. The term kon denotes the rate constant with which the complex forms. Low readings indicate slow association, high ones fast association. In the assay with human IL-17A [4], B4 had a dissociation constant (Kd) of at most 0.00361 nM, a koff of at most 1e-05 s⁻¹ and a kon of 2.77e+06 M⁻¹ s⁻¹. In addition, the “IC50 (nM), NIH3T3 in vitro functional assay described in Example 1 (IL-6 production)” value (“IC50 (nM), NIH3T3” for short) with human IL-17A [5] came out at 0.995 nM.

B5: REMD 155.2 (antibody, human IgG4 S228P, kappa, V domains shown)
VH: B4 VH
VL: B4 VL with M4L, L82V
notes: Humanized antibody derived from 23A4D8; also called IgG 4 (H1/L4); H1 + L4
Take B5: in the assay with human IL-17A [4], the Kd is at most 0.00346 nM, the koff is at most 1e-05 s⁻¹ and the kon was determined as 2.89e+06 M⁻¹ s⁻¹. Besides, the “IC50 (nM), NIH3T3” value with human IL-17A [5] came to 0.975 nM.

B6: REMD 155 (antibody, human IgG4 S228P, kappa, V domains shown)
VH: B4 VH
VL: B4 VL with Q47P
notes: Humanized antibody derived from 23A4D8; also called IgG 1 (H1/L1); H1 + L1
On to B6, for which, in the assay with human IL-17A [4], the Kd amounted to 0.00552 nM, the koff came to 1.35e-05 s⁻¹ and the kon amounted to 2.45e+06 M⁻¹ s⁻¹. Moreover, the “IC50 (nM), NIH3T3” value in the assay with human IL-17A [5] worked out at 0.88 nM.

B7: 8A5G4 (antibody, V domains shown)
VH: QVELKESGPGLVAPSQSLSITCTVSGFSLTSYGVYWVRQPPGKGLEWLVVIWSDGTTTYNSALKSRLSISKDNSKSQVFLKMNSLQTDDTAMYYCARQGDNYSYAVDYWGQGTAVTVSS
VL: DVVMIQIPLSLPVSLGDQASISCRSSQSLVHSNGNTYLHWYLQKPGQSPKLLIYKVFNRFSGVPDRFSGSGSGTDFTLKISRVEAEDLGVYFCSQSTHAPLTFGAGTKLELK
notes: amino acids 1-19 are stated as the leader; also called A2
As for B7, the binding result in the assay with murine IL-17A is “no binding”. For the same molecule, the “IC50 (nM), IL6 production” value with human IL-17A [1] is 0.47 nM. The figures for the half-maximal effective concentration (EC50) with cyno primate IL-17A and in the assay with human IL-17A [3] were 0.008 nM and 0.1 nM, respectively. Inhibition in the assay with human IL-17A [2] was half-maximal at 1.65 nM (IC50).

B8: 23A4D8 (antibody, mouse IgG2a, V domains shown)
VH: EVQLQQSGPELVKPGASVKISCKASGFTFTDYYMNWMKQSHGKSLEWIGDINPKNGGTIFNQNFRGKATLTVDKSSSTAYMELRSLTSEDSAVYYCARSILTGPFYFDYWGQGTTLTVSS
VL: DIVLTQSPASLAVSLGQRAIISCKASQSVSFAGTGLMHWYQQKSGQQPKLLISRASNLEAGVPTRFSGSGSRTDFTLNIHPVEEDDAATYYCQQTMEYPTFGGGTKLEIK
notes: also called Murine 23A4D8; parental
Take B8: the binding result in the assay with murine IL-17A is “no binding”. In the assay with human IL-17A [4], binding was characterised by a dissociation constant (Kd) of 0.00489 nM, the koff was determined as 1.22e-05 s⁻¹ and the kon turned out to be 2.5e+06 M⁻¹ s⁻¹. For the same molecule, the “IC50 (nM), IL6 production” value with human IL-17A [1] came out at 0.581 nM. The EC50 with cyno primate IL-17A was found to be 0.004 nM. For the same molecule, the “IC50 (nM), NIH3T3” value with human IL-17A [5] is 0.703 nM. The same molecule registered an IC50 with human IL-17A [2] of 2.07 nM. The EC50 in the assay with human IL-17A [3] was 0.08 nM.

B9: chimeric IgG4 (murine-human chimeric antibody derived from murine antibody A4 and human IgG4) (antibody, V domains shown)
VH: B8 VH
VL: DIVLTQSPASLAVSLGQRAIISCKASQSVSFAGTGLMHWYQQKSGQQPKLLISRASNLEAGVPTRFSGSGSRTDFTLNIHPVEEDDAATYYCQQTMEYPTFGGGTKLEIKR
notes: also called Chimeric Ab
In the case of B9, the values for the dissociation rate constant (koff) with human IL-17A [6], with human IL-17A [8] and in the assay with human IL-17A [9] were at most 1e-05 s⁻¹, 1e-05 s⁻¹ and at most 1e-05 s⁻¹, respectively. Besides, the Kd with human IL-17A [4] is 0.00515 nM; with human IL-17A [8], 0.00439 nM; in the assay with human IL-17A [9], at most 0.00493 nM. In addition, the kon stood at 1.94e+06 M⁻¹ s⁻¹ with human IL-17A [4], 2.28e+06 M⁻¹ s⁻¹ with human IL-17A [7] and 2.03e+06 M⁻¹ s⁻¹ with human IL-17A [9].

B10: 4H11C7 (antibody, mouse IgG1, V domains shown)
VH: QVTLKESGPGILQPSQTLSLTCSFSGFSLNTFGMGVDWIRQPSGKGLEWLAHIWWDDDKYYNPALESRLTISKDASKNQVFLKIANVDTADTATYYCSRRELGPYFFDYWGQGTTLTVSS
VL: GVLMTQTPLSLPVSLGDQASISCRSSQSIVHSNGNTYLEWYLQKPGQSPKLLIYKVSNRFSGVPDRFSGSGSGTDFTLKINRVEAEDLGVYYCFQGSHFPYTFGGGTKLEID
notes: amino acids 1-19 are stated as the leader; also called A1
Take B10: in the assay with murine IL-17A, the binding result is “no binding”. The “IC50 (nM), IL6 production” value in the assay with human IL-17A [1] amounted to 0.953 nM. Moreover, the concentration for a half-maximal effect (EC50) in the assay with cyno primate IL-17A stood at 0.016 nM; in the assay with human IL-17A [3], 0.19 nM. In the assay with human IL-17A [2], this molecule came in with an IC50 of 2.44 nM.

Values taken from patent publication US20210079087A1 (REMD BIOTHERAPEUTICS, published 2021).
